We go through five proteins from article PMC10014863, “Structural analysis of the housecleaning nucleoside triphosphate pyrophosphohydrolase MazG from Mycobacterium tuberculosis” (Frontiers in Microbiology, 2023).

Changes are numbered by the printed parent chain. Names may count otherwise.

The labels stand for the following.
B1: Mtb-MazG (1–185) (domain or fragment)
chain: MIVVLVDPRRPTLVPVEAIEFLRGEVQYTEEMPVAVPWSLPAARSAHAGNDAPVLLSSDPNHPAVITRLAAGARLISAPDSQRGERLVDAVAMMDKLRTAGPWESEQTHDSLRRYLLEETYELLDAVRSGSVDQLREELGDLLLQVLFHARIAEDASQSPFTIDDVADTLMRKLGNRAPGVLAGE
B2: Mtb-MazG E119A (enzyme)
chain: MIVVLVDPRRPTLVPVEAIEFLRGEVQYTEEMPVAVPWSLPAARSAHAGNDAPVLLSSDPNHPAVITRLAAGARLISAPDSQRGERLVDAVAMMDKLRTAGPWESEQTHDSLRRYLLEATYELLDAVRSGSVDQLREELGDLLLQVLFHARIAEDASQSPFTIDDVADTLMRKLGNRAPGVLAGESISLEDQLAQWEAAKASEKARKSVADDVHTGQPALALAQKVIQRAQKAGLPAHLIPDEITSVSVSADVDAENTLRTAVLDFIDRLRCAERAIAVARRGSNVAEQLDVTPLGVITEQEWLAHWPTAVNDSRGGSKKRKGMR
B3: Mtb-MazG E122A (enzyme)
chain: B2 chain with A119E, E122A
B4: Mtb-MazG E138A (enzyme)
chain: B2 chain with A119E, E138A
B5: Mtb-MazG D141A (enzyme)
chain: B2 chain with A119E, D141A

This data set deals with the molecule itself. As to the kind of experiment: SEC.
In the case of B1, the stoichiometry N (as a rule, a count of units in the complex or per binding partner) was 2.

For B2, the “stoichiometry N” value came to 2. B3: the “stoichiometry N” value was 2. Consider B4, for which the “stoichiometry N” value worked out at 2. As to B5, the “stoichiometry N” value amounted to 2.
